Measurements published in patent US6638941B1, “Conformationallly constrained peptidomimetics as β-turn templates and modulators of SH3 domains” (OSI Pharmaceuticals, Inc., priority 1997, dated 2003).

Tests used:
Lyn SH3 domain = target: T1, Lyn SH3 domain (Homo sapiens, UniProt P07948); experiment: Inhibition of Lyn SH3-GST fusion protein binding to immobilized p85 proline-rich peptide, surface plasmon resonance (BIAcore); settings: Lyn SH3-GST fusion protein (1 μM) incubated with 0.01-100 μM spirolactam or non-biotinylated canonical peptide prior to injection; 25° C.; concentration behind the values not stated
T1 construct: Lyn SH3-GST fusion proteins were generated as previously described; made in house
Procedure: The ability of spirolactams to bind to SH3 domains was assessed by measuring their ability to inhibit the binding of cononical proline-rich peptide to purified Lyn SH3 domain. This inhibition was measured by surface plasmon resonance.
Lyn SH3-GST fusion proteins were generated as previously described (Pleiman, et al., Mol & Cellular Biol. 13(9):5877 (1993)), purified from bacterial lysates by glutathione affinity chromatography and eluted by competition. Aggregates were removed by size exclusion chromatography on Sephadex 75 (Pharmacia Biotech, Uppsala, Sweden).
Surface plasmon resonance measurements were performed on a BIAcore 2000 biosensor (BIAcore AB, Uppsala, Sweden). A synthetic canonical proline-rich peptide derived from phosphatidylinositol 3 kinase p85 (Pleiman, et al., (1994) Science 263:1609 (1994)); GGGKPRPPRPLPVAPGSS (SEQ ID NO:5) was immobilized on a prepared streptavidin coated sensor chip (Sensor Chip SA, BIAcore AB) via an N-terminal biotin moiety at a density of 0.05 pmol/mm^2. […] Dissociation was monitored during subsequent washing of the chip with running buffer for an additional 5.0 minutes. […]
To test their activity, 0.01-100 μM spirolactam or non-biotinylated canonical peptide was incubated with the fusion protein prior to injection. Data were recorded in real-time as sensorgrams and analyzed subsequently using BIA evaluation 2.0 software (BIAcore AB).

[1] = target: Lyn SH3-GST fusion protein; experiment: SPR competition, compound (0.01-100 uM) incubated with Lyn SH3-GST before injection over immobilized biotinylated p85 peptide

T1 sequence (P07948 63-123 limits assumed): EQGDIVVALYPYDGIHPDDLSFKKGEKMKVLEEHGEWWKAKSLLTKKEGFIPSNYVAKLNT

Molecule	Percent Binding (Relative binding affinity to SH3 domain) (Lyn SH3 domain)	Percent Binding [1]
Ac-GGGKPRPPRPLPVAPGSS-OH [Ac-GGGKPRPPRPLPVAP-GSS-OH, non-biotinylated canonical proline-rich peptide derived from phosphatidylinositol 3 kinase p85, reference compound]	81%	
Ac-GGGKPRPPRPLPVAPGSS-OH [Ac-…-OH]		81%
